Experimental findings from patent US20240400654A1 are described below.

Where a chain is given by its changes, count along the chain named. Numbers in names are those of the source. Where “and” joins values, the source holds several entries; their conditions need not be identical. Equal entries are not always repeated.

To fix the notation:
B1: KB001 mouse Fab VL S27H (Fab, V domains shown)
VH: EVQLKQSGPGLVAPSQSLSITCTVSGFSLSIYSVHWVRQPPGKGLEWLGMIWGGGSSDYNSALKSRLSISKDNSKSQVFLKMNSLQTDDTAMYYCARNGNFYAMDYWGQGTSVTVSS
VL: QIVLTQSPAIMSASLGERVTMTCTASHSVSSSFLHWYQQKPGSSPQLWIYSTSNLASGVPARFSGSGSGTSYSLTISSMEAEDAATYYCHQYHHSPYIYTFGGGTKLEIK
B2: KB001 mouse Fab VL S28D (Fab, V domains shown)
VH: B1 VH
VL: B1 VL with H27S, S28D
B3: KB001 mouse Fab VL V29I (Fab, V domains shown)
VH: B1 VH
VL: B1 VL with H27S, V29I
B4: KB001 mouse Fab VL S30M (Fab, V domains shown)
VH: B1 VH
VL: B1 VL with H27S, S30M
B5: KB001 mouse Fab VL S32A (Fab, V domains shown)
VH: B1 VH
VL: B1 VL with H27S, S32A
B6: KB001 mouse Fab VL S28H (Fab, V domains shown)
VH: B1 VH
VL: B1 VL with H27S, S28H
B7: KB001 mouse Fab VL S30L (Fab, V domains shown)
VH: B1 VH
VL: B1 VL with H27S, S30L
B8: KB001 mouse Fab VL S31D (Fab, V domains shown)
VH: B1 VH
VL: B1 VL with H27S, S31D
B9: KB001 mouse Fab VL S31W (Fab, V domains shown)
VH: B1 VH
VL: B1 VL with H27S, S31W
B10: KB001 mouse Fab VL S32W (Fab, V domains shown)
VH: B1 VH
VL: B1 VL with H27S, S32W
B11: KB001 mouse Fab VL S30E (Fab, V domains shown)
VH: B1 VH
VL: B1 VL with H27S, S30E
B12: KB001 mouse Fab VL S28T/S12R (Fab, V domains shown)
VH: B1 VH
VL: B1 VL with S12R, H27S, S28T
B13: KB001 mouse Fab VL S30T (Fab, V domains shown)
VH: B1 VH
VL: B1 VL with H27S, S30T
B14: KB001 mouse Fab VL S31Q (Fab, V domains shown)
VH: B1 VH
VL: B1 VL with H27S, S31Q
B15: KB001 mouse Fab VL S30K (Fab, V domains shown)
VH: B1 VH
VL: B1 VL with H27S, S30K
B16: KB001 mouse Fab VL S32G (Fab, V domains shown)
VH: B1 VH
VL: B1 VL with H27S, S32G
B17: KB001 mouse Fab VL F33H (Fab, V domains shown)
VH: B1 VH
VL: B1 VL with H27S, F33H
B18: KB001 mouse Fab VL L34V (Fab, V domains shown)
VH: B1 VH
VL: B1 VL with H27S, L34V
B19: KB001 mouse Fab VL S27L (Fab, V domains shown)
VH: B1 VH
VL: B1 VL with H27L
B20: KB001 mouse Fab VL S27N (Fab, V domains shown)
VH: B1 VH
VL: B1 VL with H27N
B21: KB001 mouse Fab VL S30H (Fab, V domains shown)
VH: B1 VH
VL: B1 VL with H27S, S30H
B22: KB001 mouse Fab VL S30R (Fab, V domains shown)
VH: B1 VH
VL: B1 VL with H27S, S30R
B23: KB001 mouse Fab VL S30W (Fab, V domains shown)
VH: B1 VH
VL: B1 VL with H27S, S30W
B24: KB001 mouse Fab VL S30D (Fab, V domains shown)
VH: B1 VH
VL: B1 VL with H27S, S30D
B25: KB001 mouse Fab VL V29L (Fab, V domains shown)
VH: B1 VH
VL: B1 VL with H27S, V29L
B26: KB001 mouse Fab VL S28N (Fab, V domains shown)
VH: B1 VH
VL: B1 VL with H27S, S28N
B27: KB001 mouse Fab VL S30I (Fab, V domains shown)
VH: B1 VH
VL: B1 VL with H27S, S30I
B28: KB001 mouse Fab VL F33N (Fab, V domains shown)
VH: B1 VH
VL: B1 VL with H27S, F33N
B29: KB001 mouse Fab VL S27M (Fab, V domains shown)
VH: B1 VH
VL: B1 VL with H27M
B30: KB001 mouse Fab VL S27W (Fab, V domains shown)
VH: B1 VH
VL: B1 VL with H27W
B31: KB001 mouse Fab VL S27Y (Fab, V domains shown)
VH: B1 VH
VL: B1 VL with H27Y
B32: KB001 mouse Fab VL S27V (Fab, V domains shown)
VH: B1 VH
VL: B1 VL with H27V
B33: KB001 mouse Fab VL S28M (Fab, V domains shown)
VH: B1 VH
VL: B1 VL with H27S, S28M
B34: KB001 mouse Fab VL S27K/S68Y (Fab, V domains shown)
VH: B1 VH
VL: B1 VL with H27K, S68Y
B35: KB001 mouse Fab VL S32P (Fab, V domains shown)
VH: B1 VH
VL: B1 VL with H27S, S32P
B36: KB001 mouse Fab VL S32Q (Fab, V domains shown)
VH: B1 VH
VL: B1 VL with H27S, S32Q
B37: KB001 mouse Fab VL S32Y (Fab, V domains shown)
VH: B1 VH
VL: B1 VL with H27S, S32Y

This test addresses HRgpA-6H (Porphyromonas gingivalis) (UniProt P28784). Kind of test: ELISA, coated HRgpA-6H.
Sequence of UniProt P28784 (P28784 228-860 limits assumed): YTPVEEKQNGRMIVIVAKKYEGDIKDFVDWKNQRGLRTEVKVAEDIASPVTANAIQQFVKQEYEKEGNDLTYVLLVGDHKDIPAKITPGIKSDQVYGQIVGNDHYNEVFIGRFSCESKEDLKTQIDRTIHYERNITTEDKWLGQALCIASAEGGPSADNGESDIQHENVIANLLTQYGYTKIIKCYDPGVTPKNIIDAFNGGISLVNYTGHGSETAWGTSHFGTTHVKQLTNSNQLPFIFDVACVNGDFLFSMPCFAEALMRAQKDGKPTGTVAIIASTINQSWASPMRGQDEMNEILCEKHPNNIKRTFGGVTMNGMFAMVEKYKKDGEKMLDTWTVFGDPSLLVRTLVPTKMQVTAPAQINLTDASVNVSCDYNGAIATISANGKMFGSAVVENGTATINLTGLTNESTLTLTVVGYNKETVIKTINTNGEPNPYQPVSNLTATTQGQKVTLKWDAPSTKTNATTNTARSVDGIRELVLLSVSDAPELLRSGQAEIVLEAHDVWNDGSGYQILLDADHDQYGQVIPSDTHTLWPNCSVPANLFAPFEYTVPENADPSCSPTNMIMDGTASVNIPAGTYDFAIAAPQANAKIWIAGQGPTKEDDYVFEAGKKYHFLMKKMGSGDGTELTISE
With B1, the OD450 nm is 0.664 and 0.63 and 0.726; the Ratio OD(Variant)/OD(WT) was 0.885 and 0.839 and 0.967.

Regarding B2, the OD450 nm was 0.745 and 0.722; the Ratio OD(Variant)/OD(WT) was 0.993 and 0.962.

Turning to B3, the OD450 nm was determined as 0.853 and the Ratio OD(Variant)/OD(WT) was determined as 0.99.

In the case of B4, the OD450 nm is 0.818 and the Ratio OD(Variant)/OD(WT) stood at 0.949.

As to B5, the OD450 nm is 0.748 and 0.805; the Ratio OD(Variant)/OD(WT) is 0.885 and 0.953.

Consider B6, for which the OD450 nm stood at 0.719 and the Ratio OD(Variant)/OD(WT) came to 0.958.

Take B7: the OD450 nm turned out to be 0.813 and the Ratio OD(Variant)/OD(WT) was determined as 0.943.

With B8, the OD450 nm is 0.762 and the Ratio OD(Variant)/OD(WT) is 0.902.

With B9, the OD450 nm turned out to be 0.808 and the Ratio OD(Variant)/OD(WT) was 0.956.

As to B10, the OD450 nm worked out at 0.649 and the Ratio OD(Variant)/OD(WT) was 0.856.

For the molecule B11, the OD450 nm turned out to be 0.813 and the Ratio OD(Variant)/OD(WT) stood at 0.943.

Regarding B12, the OD450 nm was found to be 0.747 and the Ratio OD(Variant)/OD(WT) was determined as 0.995.

For the molecule B13, the OD450 nm is 0.838 and 0.817; the Ratio OD(Variant)/OD(WT) was 0.972 and 0.948.

Regarding B14, the OD450 nm is 0.83 and 0.745 and 0.782; the Ratio OD(Variant)/OD(WT) is 0.982 and 0.882 and 0.925.

For the molecule B15, the OD450 nm came out at 0.77 and the Ratio OD(Variant)/OD(WT) came to 0.893.

Take B16: the OD450 nm worked out at 0.759 and the Ratio OD(Variant)/OD(WT) was found to be 0.898.

On to B17, for which the OD450 nm worked out at 0.736 and the Ratio OD(Variant)/OD(WT) amounted to 0.971.

For B18, the OD450 nm was 0.641 and 0.634; the Ratio OD(Variant)/OD(WT) was 0.846 and 0.836.

For the molecule B19, the OD450 nm was 0.649 and the Ratio OD(Variant)/OD(WT) came to 0.865.

Regarding B20, the OD450 nm was 0.675 and 0.724 and 0.64; the Ratio OD(Variant)/OD(WT) is 0.899 and 0.965 and 0.853.

Consider B21, for which the OD450 nm was 0.808 and 0.747; the Ratio OD(Variant)/OD(WT) is 0.937 and 0.867.

On to B22, for which the OD450 nm was 0.778 and 0.793 and 0.802; the Ratio OD(Variant)/OD(WT) was 0.903 and 0.92 and 0.93.

Regarding B23, the OD450 nm was found to be 0.823 and the Ratio OD(Variant)/OD(WT) came out at 0.955.

As for B24, the OD450 nm was 0.702 and 0.723; the Ratio OD(Variant)/OD(WT) was 0.814 and 0.839.

As to B25, the OD450 nm turned out to be 0.751 and the Ratio OD(Variant)/OD(WT) turned out to be 0.871.

B26: the OD450 nm was found to be 0.743 and the Ratio OD(Variant)/OD(WT) was 0.99.

As for B27, the OD450 nm turned out to be 0.86 and the Ratio OD(Variant)/OD(WT) turned out to be 0.998.

With B28, the OD450 nm came to 0.64 and the Ratio OD(Variant)/OD(WT) turned out to be 0.844.

In the case of B29, the OD450 nm stood at 0.709 and the Ratio OD(Variant)/OD(WT) is 0.945.

For the molecule B30, the OD450 nm came out at 0.601 and the Ratio OD(Variant)/OD(WT) was 0.801.

In the case of B31, the OD450 nm was 0.617 and the Ratio OD(Variant)/OD(WT) was found to be 0.822.

Turning to B32, the OD450 nm is 0.645 and 0.646; the Ratio OD(Variant)/OD(WT) was 0.859 and 0.861.

Consider B33, for which the OD450 nm was 0.706 and 0.675; the Ratio OD(Variant)/OD(WT) was 0.941 and 0.899.

B34: the OD450 nm came to 0.736 and the Ratio OD(Variant)/OD(WT) was found to be 0.981.

With B35, the OD450 nm came to 0.744 and the Ratio OD(Variant)/OD(WT) came to 0.88.

Regarding B36, the OD450 nm came out at 0.716 and the Ratio OD(Variant)/OD(WT) turned out to be 0.847.

Consider B37, for which the OD450 nm came out at 0.753 and the Ratio OD(Variant)/OD(WT) came out at 0.891.
